Patent US20240279318A1 (NANJING LEGEND BIOTECH, published 2024)
Changes are numbered by the printed parent chain.

B1: AS170036 VL1VH1-98F108D (scFv)
scFv: QSALTQPRSVSGSPGQSVTISCAGTSSDVGSENYVSWYQQHPGKAPKLMIYQVNKRASGVPDRFSGSKSGNTASLTISGLQAEDEADYYCASYRSSDFNIVFGGGTKLTVLGGGGSGGGGSGGGGSEVQLVESGGGLVQPGGSLRLSCAASGFTFSSYAMSWVRQAPGKGLEWVSTINSGTGSPYYADSVKGRFTISRDNSKNTLYLQMNSLRAEDTAVYYCAKNFFDGSWFLDPPAMDYWGQGTLVTVSSHHHHHH
notes: also called 32-AS170036 VL1VH1-98F108D
B2: AS170036 VL1VH1-98F108S (scFv)
scFv: B1 scFv with D234S
notes: also called 33-AS170036 VL1VH1-98F108S
B3: AS170036 VL1VH1-98I108A (scFv)
scFv: B1 scFv with F98I, D234A
notes: also called 34-AS170036 VL1VH1-98I108A; 34-AS170036 VL1VH1-98I08A
B4: AS170036 VL1VH1-98I108D (scFv)
scFv: B1 scFv with F98I
notes: also called 35-AS170036 VL1VH1-98I108D
B5: AS170036 VL1VH1-98I108S (scFv)
scFv: B1 scFv with F98I, D234S
notes: also called 36-AS170036 VL1VH1-98I108S
B6: AS170036 VL1VH1-98Q108A (scFv)
scFv: B1 scFv with F98Q, D234A
notes: also called 37-AS170036 VL1VH1-98Q108A
B7: AS170036 VL1VH1-98Q108D (scFv)
scFv: B1 scFv with F98Q
notes: also called 38-AS170036 VL1VH1-98Q108D
B8: AS170036 VL1VH1-98Q108S (scFv)
scFv: B1 scFv with F98Q, D234S
notes: also called 39-AS170036 VL1VH1-98Q108S
B9: LD97A (scFv)
scFv: B1 scFv with D97A, F98H, D234G
notes: AS170036 VL1VH1 scFv mutein
B10: LD97F (scFv)
scFv: B1 scFv with D97F, F98H, D234G
notes: AS170036 VL1VH1 scFv mutein
B11: LD97G (scFv)
scFv: B1 scFv with D97G, F98H, D234G
notes: AS170036 VL1VH1 scFv mutein
B12: LD97H (scFv)
scFv: B1 scFv with D97H, F98H, D234G
notes: AS170036 VL1VH1 scFv mutein
B13: LD97K (scFv)
scFv: B1 scFv with D97K, F98H, D234G
notes: AS170036 VL1VH1 scFv mutein
B14: LD97N (scFv)
scFv: B1 scFv with D97N, F98H, D234G
notes: AS170036 VL1VH1 scFv mutein
B15: LD97R (scFv)
scFv: B1 scFv with D97R, F98H, D234G
notes: AS170036 VL1VH1 scFv mutein
B16: LD97S (scFv)
scFv: B1 scFv with D97S, F98H, D234G
notes: AS170036 VL1VH1 scFv mutein
B17: LD97T (scFv)
scFv: B1 scFv with D97T, F98H, D234G
notes: AS170036 VL1VH1 scFv mutein
B18: LE32D (scFv)
scFv: B1 scFv with E32D, F98H, D234G
notes: AS170036 VL1VH1 scFv mutein
B19: LE32G (scFv)
scFv: B1 scFv with E32G, F98H, D234G
notes: AS170036 VL1VH1 scFv mutein
B20: LE32S (scFv)
scFv: B1 scFv with E32S, F98H, D234G
notes: AS170036 VL1VH1 scFv mutein
B21: LE32W (scFv)
scFv: B1 scFv with E32W, F98H, D234G
notes: AS170036 VL1VH1 scFv mutein; also called AS170036 VL1VH1-VLE32W
B22: LE32Y (scFv)
scFv: B1 scFv with E32Y, F98H, D234G
notes: AS170036 VL1VH1 scFv mutein
B23: LH98A (scFv)
scFv: B1 scFv with F98A, D234G
notes: AS170036 VL1VH1 scFv mutein; also called AS170036 VL1VH1-VLH98A
B24: LH98F (scFv)
scFv: B1 scFv with D234G
notes: AS170036 VL1VH1 scFv mutein; also called AS170036 VL1VH1-VLH98F
B25: LH98G (scFv)
scFv: B1 scFv with F98G, D234G
notes: AS170036 VL1VH1 scFv mutein
B26: LH98I (scFv)
scFv: B1 scFv with F98I, D234G
notes: AS170036 VL1VH1 scFv mutein; also called AS170036 VL1VH1-VLH98I
B27: LH98L (scFv)
scFv: B1 scFv with F98L, D234G
notes: AS170036 VL1VH1 scFv mutein
B28: LH98M (scFv)
scFv: B1 scFv with F98M, D234G
notes: AS170036 VL1VH1 scFv mutein
B29: LH98N (scFv)
scFv: B1 scFv with F98N, D234G
notes: AS170036 VL1VH1 scFv mutein
B30: LH98P (scFv)
scFv: B1 scFv with F98P, D234G
notes: AS170036 VL1VH1 scFv mutein; also called AS170036 VL1VH1-VLH98P
B31: LH98Q (scFv)
scFv: B1 scFv with F98Q, D234G
notes: AS170036 VL1VH1 scFv mutein; also called AS170036 VL1VH1-VLH98Q
B32: LH98R (scFv)
scFv: B1 scFv with F98R, D234G
notes: AS170036 VL1VH1 scFv mutein
B33: LH98S (scFv)
scFv: B1 scFv with F98S, D234G
notes: AS170036 VL1VH1 scFv mutein
B34: LH98T (scFv)
scFv: B1 scFv with F98T, D234G
notes: AS170036 VL1VH1 scFv mutein; also called AS170036 VL1VH1-VLH98T
B35: LH98V (scFv)
scFv: B1 scFv with F98V, D234G
notes: AS170036 VL1VH1 scFv mutein; also called AS170036 VL1VH1-VLH98V
B36: LH98W (scFv)
scFv: B1 scFv with F98W, D234G
notes: AS170036 VL1VH1 scFv mutein
B37: LH98Y (scFv)
scFv: B1 scFv with F98Y, D234G
notes: AS170036 VL1VH1 scFv mutein
B38: LY34H (scFv)
scFv: B1 scFv with Y34H, F98H, D234G
notes: AS170036 VL1VH1 scFv mutein

Molecular target: T1, AFP158/HLA-A*02:01 complex (human)
T1 construct: flowed as analyte in SPR
Assay: SPR, fold vs AS170036 VL1VH1;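 further: crude scFv muteins immobilised on a sensor chip, peptide–MHC complex passed over at several concentrations, binding then buffer-driven dissociation, KD estimated from on- and off-rates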

Row | Binder | Affinity increase [fold]
1 | B1 | 17.6
2 | B2 | 8.6
3 | B3 | 20.1
4 | B4 | 15.8
5 | B5 | 7.7
6 | B6 | 20.5
7 | B7 | 16.3
8 | B8 | 8.5

Molecular target: T2, AFP158/HLA-A*02:01 complex (human)
T2 construct: flowed over the chip in SPR; also called AFP158 pro
Assay: SPR, KD ratio to AS170036 VL1VH1;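 further: crude scFv captured on a sensor chip, peptide–HLA complex passed over at several concentrations, association then buffer dissociation, KD derived from on- and off-rates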

Row | Binder | Affinity increase [fold]
9 | B9 | 0.5
10 | B10 | 0.5
11 | B11 | 0.8
12 | B12 | 0.6
13 | B13 | 0.6
14 | B14 | 1
15 | B15 | 0.5
16 | B16 | 0.6
17 | B17 | 0.7
18 | B18 | 1.3
19 | B19 | 0.7
20 | B20 | 0.5
21 | B21 | 2.4
22 | B22 | 0.6
23 | B23 | 2.3
24 | B24 | 3.3
25 | B25 | 0.9
26 | B26 | 3.1
27 | B27 | 1.2
28 | B28 | 1.8
29 | B29 | 1.5
30 | B30 | 3.5
31 | B31 | 3.3
32 | B32 | 1.1
33 | B33 | 1.4
34 | B34 | 2.9
35 | B35 | 3.2
36 | B36 | 1.2
37 | B37 | 1.6
38 | B38 | 0.5

Molecular target: T2, AFP158/HLA-A*02:01 complex
Assay: SPR, scFv captured, pMHC in flow;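 further: complex injected at several concentrations over crude scFv, association then running-buffer dissociation, KD estimated from kinetic on- and off-rate constants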
Method: (§1) The experiment was carried out as follows. The crude scFv protein were captured onto the sensorchip. Different concentrations (320, 160, 40 nM) of AFP158/HLA-A*02:01 complex flowed over the sensorchip surface, and were allowed to bind the antibody fragment for 100 s followed by injection of the running buffer to allow dissociation of the complex. On-rate (kd) and off-rate (kd) were calculated based on association and dissociation curve, and were used to estimate the equilibrium dissociation constant (KD).

Row | Binder | Kd [nM]
39 | B9 | 470
40 | B10 | 450
41 | B11 | 310
42 | B12 | 420
43 | B13 | 410
44 | B14 | 240
45 | B15 | 520
46 | B16 | 420
47 | B17 | 360
48 | B18 | 190
49 | B19 | 350
50 | B20 | 500
51 | B21 | 100
52 | B22 | 430
53 | B23 | 110
54 | B24 | 74
55 | B25 | 280
56 | B26 | 78
57 | B27 | 200
58 | B28 | 140
59 | B29 | 160
60 | B30 | 70
61 | B31 | 75
62 | B32 | 220
63 | B33 | 180
64 | B34 | 84
65 | B35 | 78
66 | B36 | 200
67 | B37 | 160
68 | B38 | 540

Molecular target: T2, AFP158/HLA-A*02:01 complex
Assay: SPR, KD ratio to AS170036 VL1VH1;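 further: crude scFv captured on a sensor chip, peptide–HLA complex passed over at several concentrations, association then buffer dissociation, KD derived from on- and off-rates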
Remark: another data set of the same source
Method: as §1

Row | Binder | Affinity increase [fold]
69 | B9 | 0.5
70 | B10 | 0.5
71 | B11 | 0.8
72 | B12 | 0.6
73 | B13 | 0.6
74 | B14 | 1
75 | B15 | 0.5
76 | B16 | 0.6
77 | B17 | 0.7
78 | B18 | 1.3
79 | B19 | 0.7
80 | B20 | 0.5
81 | B21 | 2.4
82 | B22 | 0.6
83 | B23 | 2.3
84 | B24 | 3.3
85 | B25 | 0.9
86 | B26 | 3.1
87 | B27 | 1.2
88 | B28 | 1.8
89 | B29 | 1.5
90 | B30 | 3.5
91 | B31 | 3.3
92 | B32 | 1.1
93 | B33 | 1.4
94 | B34 | 2.9
95 | B35 | 3.2
96 | B36 | 1.2
97 | B37 | 1.6
98 | B38 | 0.5

Molecular target: T2, AFP158/HLA-A*02:01 complex
Assay: SPR, scFv captured, pMHC in flow;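 further: complex injected at several concentrations over crude scFv, association then running-buffer dissociation, KD estimated from kinetic on- and off-rate constants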
Remark: another data set of the same source
Method: as §1

Row | Binder | Kd [nM]
99 | B9 | 470
100 | B10 | 450
101 | B11 | 310
102 | B12 | 420
103 | B13 | 410
104 | B14 | 240
105 | B15 | 520
106 | B16 | 420
107 | B17 | 360
108 | B18 | 190
109 | B19 | 350
110 | B20 | 500
111 | B21 | 100
112 | B22 | 430
113 | B23 | 110
114 | B24 | 74
115 | B25 | 280
116 | B26 | 78
117 | B27 | 200
118 | B28 | 140
119 | B29 | 160
120 | B30 | 70
121 | B31 | 75
122 | B32 | 220
123 | B33 | 180
124 | B34 | 84
125 | B35 | 78
126 | B36 | 200
127 | B37 | 160
128 | B38 | 540

Molecular target: T1, AFP158/HLA-A*02:01 complex
Assay: SPR, crude scFv captured, pMHC analyte;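 further: pMHC analyte injected at three concentrations, association phase of one hundred seconds, then running buffer for dissociation, rates fitted from both curves, KD derived from the rates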
Method: as §1
The crude scFv muteins were then subjected to SPR affinity measurement by the method mentioned above.

Row | Binder | Kd [nM] | koff [s⁻¹] | kon [M⁻¹ s⁻¹]
129 | B1 | 13 | 0.0057 | 450000
130 | B2 | 26 | 0.0086 | 330000
131 | B3 | 11 | 0.0031 | 280000
132 | B4 | 14 | 0.0053 | 370000
133 | B5 | 29 | 0.007 | 240000
134 | B6 | 11 | 0.0028 | 250000
135 | B7 | 14 | 0.0045 | 330000
136 | B8 | 27 | 0.0057 | 220000
